Measured values from publication PMC3098852, “Molecular Design, Functional Characterization and Structural Basis of a Protein Inhibitor Against the HIV-1 Pathogenicity Factor Nef” (PLoS ONE, 2011).

How the values were obtained:
[1] = molecular target: T1, HIV-1 NefSF2 wild type, full length (1-210), C210A (HIV-1 SF2, UniProt P03407, C210A); experiment: ITC; conditions: both partners purified
T1 construct: source: E. coli BL21(DE3), purified (Ni-NTA, Superdex 75)

[2] = molecular target: T2, HIV-1 NefSF2 (Δ1-44), C210A (HIV-1 SF2, UniProt P03407 45-210, C210A); experiment: ITC; conditions: both partners purified
T2 construct: source: E. coli BL21(DE3), purified (Ni-NTA, Superdex 75)

B1: GST-NI1-2, GST fusion of Hck-SH3 (78-138) with RT loop V90SWSPD (domain or fragment)
chain: not shown
notes: source: bacteria (pGEX-4T1 Tev vector), purified (GSH resin, Superdex 75); not shown: GST, N-terminal, kept
Kd [1]: 140 ± 6.7 nM
dH [1]: -8.9 ± 0.02 kcal/mol
stoichiometry N [1]: 1.07

B2: NI1-2, Hck-SH3 (78-138) with RT loop V90SWSPD (domain or fragment)
chain: not shown
notes: source: bacteria (pGEX-4T1 Tev vector), purified (GSH resin, Superdex 75)
Kd [2]: 179 ± 29 nM
dH [2]: -8.16 ± 0.07 kcal/mol
stoichiometry N [2]: 0.99

B3: NI1-3, Hck-SH3 (78-138) with RT loop Y90SPFSW (domain or fragment)
chain: SEDIIVVALYDYYSPFSWDLSFQKGDQMVVLEESGEWWKARSLATRKEGYIPSNYVARVDS
notes: as for B2
Kd [2]: 48 ± 11 nM
dH [2]: -7.99 ± 0.07 kcal/mol
stoichiometry N [2]: 0.95
